From publication PMC3077374 come the findings set out here.

Targets include human IgG (human); human IgM (human); human IgA (human).
Holding throughout (experiment): SPR; Biacore 3000; hIgG, hIgM or hIgA amine-coupled to CM-5 chips (10 mM sodium acetate, pH 5.0, 4.5 or 4.0); LD5 or SpA as analyte in serial 1:2 dilutions from 1.25 and 0.8 uM; flow 40 ul/min; NaCl/HEPES with 0.005% surfactant P20; regeneration 100 mM alanine-HCl pH 2.5

For the substance “staphylococcal protein A (SpA) (from UniProt P02976 37-485) (natural protein)”, in the assay with human IgG (human), the Ka worked out at 3.45e+09 M⁻¹, the Kd came out at 0.29 nM, the koff amounted to 4.4e-05 s⁻¹ and the kon was determined as 154000 M⁻¹ s⁻¹. Also, in the assay with human IgM (human), the Kd worked out at 7.15 nM, the koff was determined as 0.000817 s⁻¹ and the kon amounted to 115000 M⁻¹ s⁻¹. In the assay with human IgA (human), this substance came in with a Kd of 7.03 nM, a koff of 0.00292 s⁻¹ and a kon of 416000 M⁻¹ s⁻¹.
